# Patent US20240247058A1 (published 2024)
# T1: human ICOS ligand (human, UniProt O75144 19-258, limits assumed)
# T1 construct: also called hICOSL
# T1 sequence (looked up): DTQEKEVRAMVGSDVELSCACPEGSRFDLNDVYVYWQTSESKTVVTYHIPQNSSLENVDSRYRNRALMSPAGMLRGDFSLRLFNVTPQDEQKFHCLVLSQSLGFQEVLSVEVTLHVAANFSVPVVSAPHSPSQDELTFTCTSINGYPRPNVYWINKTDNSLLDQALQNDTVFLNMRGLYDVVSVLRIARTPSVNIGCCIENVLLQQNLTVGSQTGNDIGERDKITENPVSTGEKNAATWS
# T2: mouse ICOS ligand (mouse, UniProt Q9JHJ8 47-279, limits assumed)
# T2 construct: the construct is not described; also called mICOSL
# T2 sequence (looked up): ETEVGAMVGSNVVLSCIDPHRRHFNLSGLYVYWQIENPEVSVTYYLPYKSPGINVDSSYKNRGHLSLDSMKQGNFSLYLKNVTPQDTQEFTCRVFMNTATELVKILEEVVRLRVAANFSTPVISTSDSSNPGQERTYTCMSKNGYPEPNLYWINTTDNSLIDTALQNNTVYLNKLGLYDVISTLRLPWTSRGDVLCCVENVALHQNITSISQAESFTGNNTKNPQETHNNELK
# T3: Mouse TNFα (mouse, UniProt P06804 80-235)
# T3 sequence (looked up): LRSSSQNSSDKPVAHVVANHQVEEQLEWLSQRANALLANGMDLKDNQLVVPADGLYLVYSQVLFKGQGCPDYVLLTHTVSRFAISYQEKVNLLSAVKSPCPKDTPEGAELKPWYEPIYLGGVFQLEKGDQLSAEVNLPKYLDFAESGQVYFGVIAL
# Tests used:
# [1] = target: T4, human Tumour Necrosis Factor alpha (hTNFα) (human, UniProt P01375 77-233); assay: cell-based or functional assay
# T4 sequence (P01375 77-233 limits assumed): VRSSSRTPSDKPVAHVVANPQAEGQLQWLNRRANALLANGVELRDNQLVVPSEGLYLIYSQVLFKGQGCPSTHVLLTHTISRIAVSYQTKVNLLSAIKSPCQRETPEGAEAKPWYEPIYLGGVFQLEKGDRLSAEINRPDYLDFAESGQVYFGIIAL
# [2] = target: T4, human Tumour Necrosis Factor alpha …; assay: BLI, Octet RED96, biotinylated hTNF-α on streptavidin sensors (BIAcore cell is n/a)
# [3] = target: T4, human Tumour Necrosis Factor alpha …; assay: kinetics on hTNFα, Table 1 (instrument for Ka/Kd not stated)
# [4] = target: T4, human Tumour Necrosis Factor alpha …; assay: binding profile of humanised D1 versions on hTNF-alpha (FIG. 16)
# [5] = target: T1, human ICOS ligand; assay: binding ELISA on human and mouse ICOS ligands (FIG. 11)
# [6] = target: T2, mouse ICOS ligand; assay: as above
# [7] = target: T3, Mouse TNFα; assay: cell-based or functional assay
# [8] = target: T4, human Tumour Necrosis Factor alpha …; assay: BLI, Octet RED96, biotinylated hTNF-α on streptavidin sensors
# [9] = target: T4, human Tumour Necrosis Factor alpha …; assay: SPR, BIAcore T200, TNFα amine-coupled to chip, 1:1 Langmuir fit
# [10] = target: T4, human Tumour Necrosis Factor alpha …; assay: statement in the legend of the Caco-2 permeability assay (FIG. 8)
binder,measurement,setting,value
TNF VNAR DIMER D1-B4 (VNAR) ARVDQTPQTITKETGESLPINCVLRDSHCATSSTYWYRKKSGSTNEESISKGGRYVETVNSGSKSFSLRINDLTVEDSGTYRCASECQYGLAEYDVYGGGTVVTVNGGGGSGGGGGSGAHSARVDQTPQTITKETGESLTINCVLRDSNCALSSMYWYRKKSGSTNEESISKGGRYVETVNSGSKSFSLRINDLTVEDSGTYRCKVYIPCIDELVYMISGGTSGPIHDVYGGGTVVTVNAAAHHHHHHGAAEQKLISEEDL,"ND50 (nM), neutralisation of hTNF-alpha cytotoxicity in L929 cells",[1],8 nM
same,Kd,[2],15.9 nM
same,koff,[3],0.0005 s⁻¹
same,kon,[3],270000 M⁻¹ s⁻¹
"TNF VNAR D1-BA11-B4 (VNAR, Tandem VNAR trimer with His and myc tags) ARVDQTPQTITKETGESLTINCVLRDSHCATSSTYWYRKKSGSTNEESISKGGRYVETVNSGSKSFSLRINDLTVEDSGTYRCASECQYGLAEYDVYGGGTVVTVNGGGGSGGGGSGGGGSGGGGSGAHSTRVDQSPSSLSASVGDRVTITCVLTDTSYPLYSTYWYRKNPGSSNKEQISISGRYSESVNKGTKSFTLTISSLQPEDSATYYCRAMSTNIWTGDGAGTKVEIKGGGGSGGGGSGGGGSGGGGSGAHSARVDQTPQTITKETGESLTINCVLRDSNCALSSMYWYRKKSGSTNEESISKGGRYVETVNSGSKSFSLRINDLTVEDSGTYRCKVYIPCIDELVYMISGGTSGPIHDVYGGGTVVTVNHHHHHHHEQKLISEEDL",Kd,[2],0.33 nM
same,koff,[3],0.006 s⁻¹
same,kon,[3],1.7e+06 M⁻¹ s⁻¹
"SoloMER™ VNAR D1-v2 (VNAR, Humanised D1 VNAR with His tag; also called soloMER D1-v2) VNAR: ARVDQSPSSLSASVGDRVTITCVLRDSHCATSSTYWYRKKSGSTNEESISKGGRYVETVNSGSKSFTLTISSLQPEDFATYYCASECQYGLAEYDVYGGGTKVEIKH",binding result,[4],binds
"SoloMER™ VNAR D1-v3 (VNAR, Humanised D1 VNAR with His tag) VNAR: ARVDQSPSSLSASVGDRVTITCVLRDSHCATSSTYWYQQKPGKTNEESISKGGRYVETVNSGSKSFTLTISSLQPEDFATYYCASECQYGLAEYDVYGGGTKVEIKH",binding result,[4],binds
"SoloMER™ VNAR D1-v4 (VNAR, Humanised D1 VNAR with His tag) VNAR: ARVDQSPSSLSASVGDRVTITCVLRDSHCATSSTYWYRKKPGSTNEESISKGGRFSGSGSSGSKSFTLTISSLQPEDFATYYCASECQYGLAEYDVFGQGTKVEIKH",binding result,[4],binds
"ICOS VNAR CC3-Fc-2D4 (Fc fusion, Human IgG1 Fc; also called anti-ICOSL Quad-X™ construct) TRVDQTPRTATKETGESLTINCVLTDTEYGLFSTSWFRKNPGTTDWERMSIGGRYVESVNKGAKSFSLRIKDLTVADSATYYCKALGWWPPAFPHWYDGAGTVLTVNGGGGSGGGGRTEPKSSDKTHTCPPCPAPEAAGAPSVFLFPPKPKDTLMISRTPEVTCVVVDVSHEDPEVKFNWYVDGVEVHNAKTKPREEQYNSTYRVVSVLTVLHQDWLNGKEYKCKVSNKALPAPIEKTISKAKGQPREPQVYTLPPSREEMTKNQVSLTCLVKGFYPSDIAVEWESNGQPENNYKTTPPVLDSDGSFFLYSKLTVDKSRWQQGNVFSCSVMHEALHNHYTQKSLSLSPGKTAAAATAAAATAAAATAAAATRVDQTPRTATKETGESLTINCVLTDTDYGLFSTSWFRKNPGTTDWERMSIGGRYVESVNKGAKSFSLRIKDLTVADSATYYCKAFTWPWEWPDRWFRPWYDGAGTVLTVN",binding result,[5],binds
same,binding result,[6],binds
TNF S17-Quad-X™ with (Gly4Ser)5 (Fc fusion) ASVNQTPRTATKETGESLTINCVLTDTHAKVFTTSWFRKNPGTTDWERMSIGGRYVESVNKGAKSFSLRIKDLTVADSATYICRAGGYLSQPRVYWDVYGAGTVLTVNGGGGSGGGGRTEPRGPTIKPCPPCKCPAPNLLGGPSVFIFPPKIKDVLMISLSPIVTCVVVDVSEDDPDVQISWFVNNVEVHTAQTQTHREDYNSTLRVVSALPIQHQDWMSGKEFKCKVNNKDLPAPIERTISKPKGSVRAPQVYVLPPPEEEMTKKQVTLTCMVTDFMPEDIYVEWTNNGKTELNYKNTEPVLDSDGSYFMYSKLRVEKKNWVERNSYSCSVVHEGLHNHHTTKSFSRTPGKGGGGSGGGGSGGGGSGGGGSGAHSASVNQTPRTATKETGESLTINCVLTDTHAKVFTTSWFRKNPGTTDWERMSIGGRYVESVNKGAKSFSLRIKDLTVADSATYICRAGGYLSQPRVYWDVYGAGTVLTVN,fold improvement of in vitro neutralizing potency over S17-Fc,[7],~40 fold
"TNF VNAR D1-BA11-D1 (VNAR, Tandem VNAR trimer with His and myc tags) ARVDQTPQTITKETGESLTINCVLRDSHCATSSTYWYRKKSGSTNEESISKGGRYVETVNSGSKSFSLRINDLTVEDSGTYRCASECQYGLAEYDVYGGGTVVTVNGGGGSGGGGSGGGGSGGGGSGAHSTRVDQSPSSLSASVGDRVTITCVLTDTSYPLYSTYWYRKNPGSSNKEQISISGRYSESVNKGTKSFTLTISSLQPEDSATYYCRAMSTNIWTGDGAGTKVEIKGGGGSGGGGSGGGGSGGGGSGAHSARVDQTPQTITKETGESLTINCVLRDSHCATSSTYWYRKKSGSTNEESISKGGRYVETVNSGSKSFSLRINDLTVEDSGTYRCASECQYGLAEYDVYGGGTVVTVNHHHHHHHEQKLISEEDL","ND50 (nM), neutralisation of hTNF-alpha cytotoxicity in L929 cells",[1],0.38 nM
same,Kd,[8],0.1 nM
same,Kd,[9],4 nM
same,koff,[3],0.0002 s⁻¹
same,kon,[3],1.9e+06 M⁻¹ s⁻¹
"ICOS VNAR CC3-Fc-CC3 (Fc fusion, Human IgG1 Fc; also called anti-ICOSL Quad-X™ construct) TRVDQTPRTATKETGESLTINCVLTDTEYGLFSTSWFRKNPGTTDWERMSIGGRYVESVNKGAKSFSLRIKDLTVADSATYYCKALGWWPPAFPHWYDGAGTVLTVNGGGGSGGGGRTEPKSSDKTHTCPPCPAPEAAGAPSVFLFPPKPKDTLMISRTPEVTCVVVDVSHEDPEVKFNWYVDGVEVHNAKTKPREEQYNSTYRVVSVLTVLHQDWLNGKEYKCKVSNKALPAPIEKTISKAKGQPREPQVYTLPPSREEMTKNQVSLTCLVKGFYPSDIAVEWESNGQPENNYKTTPPVLDSDGSFFLYSKLTVDKSRWQQGNVFSCSVMHEALHNHYTQKSLSLSPGKTAAAATAAAATAAAATAAAATRVDQTPRTATKETGESLTINCVLTDTEYGLFSTSWFRKNPGTTDWERMSIGGRYVESVNKGAKSFSLRIKDLTVADSATYYCKALGWWPPAFPHWYDGAGTVLTVN",binding result,[6],binds
TNF VNAR DIMER D1-D1 (VNAR) ARVDQTPQTITKETGESLTINCVLRDSHCATSSTYWYRKKSGSTNEESISKGGRYVETVNSGSKSFSLRINDLTVEDSGTYRCASECQYGLAEYDVYGGGTVVTVNGGGGSGGGGGSGAHSARVDQTPQTITKETGESLTINCVLRDSHCATSSTYWYRKKSGSTNEESISKGGRYVETVNSGSKSFSLRINDLTVEDSGTYRCASECQYGLAEYDVYGGGTVVTVNAAAHHHHHHGAAESKLISEEDL,"ND50 (nM), neutralisation of hTNF-alpha cytotoxicity in L929 cells",[1],7 nM
same,Kd,[2],0.6 nM
same,koff,[3],0.000316 s⁻¹
same,kon,[3],500000 M⁻¹ s⁻¹
"TNF VNAR B4 (VNAR, Nurse shark VNAR single domain, expressed with His and myc tags) VNAR: ARVDQTPQTITKETGESLTINCVLRDSNCALSSMYWYRKKSGSTNEESISKGGRYVETVNSGSKSFSLRINDLTVEDSGTYRCKVYIPCIDELVYMISGGTSGPIHDVYGGGTVVTVNA",binding result,[10],binds
